Test results from patent US20250136681A1.

Molecular target: IL-2 receptor (human)
Experiment: cell-based or functional assay

## wild type recombinant IL-2 (ligand)
  EC50 of pSTAT5 increase on CD56brightCD16- NK cells (intracellular flow cytometry, human PBMCs): 60 pM
